# Experimental data taken from the domain aggregation screens of Martell et al. (2025).
# Experiment: soluble fraction after stress (log2 fold change); higher = more stays soluble; pooled small domains, quantitative proteomics
# Conditions: stress: 50 degC
# How it was run: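 Pooled custom libraries of small protein domains were measured in a high-throughput format, with quantitative proteomics as the read-out. Each library was stressed at 50°C. Aggregation propensity is given as the base-two logarithm of the fold change in how much of each protein stays soluble after the stress. Higher values mean a larger share of the protein remains in solution.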
row,Sequence,soluble fraction (log2)
1,HMSNYYNILGVNKSSTQDEIKKAFRKKAVEHHPDKGGNEATFKKINEAYNTLSDNNKRHMYDMQQSG,0.213
2,HMINLTKVGNFISIIKLQQIWTIDELLKKVDINYDELLYLLTILSDIYSKNGEYFFDFDIDAENNKILFNN,0.42
3,HMQLGSILAYKFPQFGGIDGAWQVRDDSNGTGPYIAFWDAKTIGRGMPTEDELTAWAQEYEA,-0.153
4,HMREGNELLGKEGVTVSELRPAGIALIDGRRTDVVTDGEFVAVDQAVEVVEVSGNRVVVRRS,0.0948
5,HMRFNIGNVIEHYKLNTEDLAKVLFPTVKYPKQAFDRVLKGEANLDVIQLERLANHIGVLVTDLF,-0.196
6,HMKYFDRDLINYIQKTLAGKKIDFHEKIVPLIIELAGSDIRRVDEIIDMAEYSGKGMHVSEEMIRELAGDV,-0.815
7,HMGTQKVQVVNGPINVRSGPGPTFEKIGMVEDQAVYQVVSKKDDWFQISLPGNKTAWVAGWLVKEIK,0.0417
8,HMIADDLKSLEGVDQDMLRDLAEAGINTRDDLAELAIDELIEITGVSTEEAEKVIMAARAHWFEEES,0.463
9,HMETTEELISKTVPISYADMAALTGILDGVKSARGDIQVDDRTSTIIIHDIQSSIDEMMRLIKILD,-0.999
10,HMTEEELLERLDAVITEYKGKPGALIPVLQLAQGIFGYLPEVALKHIARQLDKPYSEVAGVVSFYSFFTT,0.0488
11,HMLEPGIAVLKTLMSQYRLGVADLPELGSKSNVSKLLNAVEGKKLTRQHIEALSKRFAVSPALF,-0.195
12,HMDSADADLLRRIEDLLSSRRSVIREARLADMLGVPRDQVARALDLLQERGVIGLTTDSGMKRIAFRRN,-0.0756
13,HMGDGMEVWVNGSPVNLTGKDSFIFVDIFDFIDFDLTASKGRLIVIKVNGEYAEYTRPLHNGDTIEIYWEE,-0.0714
14,HMQQVDWGSVFGDFGTMFKDQLQPTIDRLRRMAQSDTFRQSSLEEQQILYSLIEKLERSGTA,-1.03
15,HMTKEEIVVNWLPRYTKRNLEDFGEYILLTNFNKYVEIFAEKFNVPILGRDANMISASAEGITIIN,-0.191
16,HMNDPIGDMLTRIRNAQMRGKSTVSTPASKLRAWVLEVLASEGYIRGFERATTDNGQGELVISLD,-0.665
17,HMIDLGKSRTWHSENGRAIEARVINISEEQQTVEMQRVDGLKFELSWNQLSKADQTLLAEAAKKTALVA,0.0711
18,HMQFEIGDTVRVHVNIREGERERVQMFEGTVIAKRGSGVSETFTVRRVSYGVGVERVFPVNSPNV,0.105
19,HMKVDLSEEEKTILELLKKESPQELETIKAASTLSNKKWDKAIKGLRKHNLAKVNKTDDGLFVELE,0.257
20,HMDRRIDIANAVKTALGSLPERQKTAIVLVHYEGFSGAETAKLLGISVEAVESLLARARRNLRQTLGP,-0.455
21,HMQIEQVDYGTFMTMIDDKKIDKVEIKDNQILFIGKDDNKKYKTGIVQDPQLAERLHASGAVFSQDI,-0.136
22,HMVDIGQSIRVELIREGKDSHQAVGYLRDGSMVVVNHGRKLIGSTVEVEITSIVPSSAGKVIFAEYLE,-0.378
23,HMEDIVDLVVEPEAAGRRLDAWLASRIERLSRSRIKALIESGHVAIGGATIVEAKKPVNSGDVVQLSVPEG,0.0215
24,HMSKYLAFTVKKNDELLPFIEKALNGISHTKAKAILANGGAMVNKNTITQYNYPLTPGMTVEISRH,0.131
25,HMKTGTVQDFIAKYGMSSKSPSSWFNSLTQIQKAEAKALKAQSGLTWNEWYEKNIYNGDGSNL,0.0263
26,HMLWTHIALPVRSLDDTMAFYDKYTTLENIHERQDPETNMRSVWLANPGDKTEQAARFVLVLI,-0.116

row,Sequence,soluble fraction (log2)
1,HMDNITIYSSNGKIYVNAIGGEKIELFNITGQKVAEKVAVSGINVLDAVYDITLVKVGSKVVKVV,-0.123
2,HMVLAEPLSERELDILRLLAAGDSNKEIAAVLYITEGTVKNHVTNILGKLDARDRTQAALRARELGL,-0.801
3,HMENRILIPTAENIGERLDRYISSELDAPRSQVQIWIDSGLVAVSGGLKPKNYRLREGDEIEVTIPDPV,0.0407
4,HMAHILDLMELKQILRLHMDGLSNRRISDTLGIHRNTINSYVSQFKASKHGIEELLKLSDYELAQLFP,-2.26
5,HMKKPLEYIDVDKREDFPPVPNGMRYIHFYGGTKNYRAYIAPEDISRADFMEQYPEYVPEHN,0.184
6,HMNEVRINTAHIEHKYLGEVKVLDIQEMRNARGRDADPLAFLAIRFWSPRGVLVRVKDSRDATPYWLIS,0.3
7,HMDAINITTYKGQITLTGTKTGTLVGIYNTAGMLVKSMMSKGEKLYFDNLPSGVYIIKVGEEEPRKVQVI,-0.165
8,HMSLSQLGLTPRQTDVLALLLKGQPNKLIARELGLSVETVKDHVAAVLRALNVSSRTQAVIAVSQMLQ,-0.905
9,HMADPRFHSEIMLSKIESLLSGKADSDVSNYSIQGRSLTKMSLQELMDARESYDGLVKSEKAKLDAKY,0.0495
10,HMAEPIEKIIIEGNQRIEALTIQSYLLLRVGEPFNRQLMNQTLKSLYATGYFSDVAVTRVSSSLLVK,0.133
11,HMGVAASEVHREKKESSLQWRQSYNVATDQRRQGKTYKEITEFLNGAELKNSKGGTWSISGVRKMLM,0.271
12,HMTGSTSVAQVSTPSGSLNLRAYASTSARVLLQIPEYAFVTVYNRGATWSYVSYNGVSGYVMSVYLSFGG,-1.01
13,HMRPIDEVFGFFSRPENLTVITPSNLHFNILTPRPLEMKQGAVIDYTIKIFKVPIHWRTLITTYDPPFKFV,-0.288
14,HMYSDIERAMTNAPEQFANKQAVLDFLNKNRIKKSEVDDYRIASLLKLYDDASPISKTEIISQVRT,0.149
15,HMSVDIIPGKADQKVRLIHDPAIVGVTTGGVKTAGPHTLIQIELGPNERPYKRLSLLELIPEG,-0.115
16,HMQELGVISEGKYNIELNMVSWNDREPKYDIRSWAPDHSRMGKGISLTEEEMERLVELWNTRNE,-0.248
17,HMLEKDIGKAITILRKSYQLSISAFSMRTGYSRVHISEVESGKRKATDELISVIRNVFHLDSNWPF,-1.47
18,HMTLKTISLTEAIKNTNEGNYSKLVLDGNELTITEQGKETPSLKTYTEPGTSLKEQGFDLSKVEFEAREQS,0.152
19,HMEEDGAPLESREVLLDQAISQGKGTQWTIATETKLEDHIVSGAYSTDGKVTLAVFSPLGDGKYEFSSSVN,0.0751
20,HMTLAEEFNNLNGKVITRETLESLLVKAEKEQNSTISNRIRKVLQAYTADTFLIELQHTESA,0.0776
21,HMEEPEYELLRQAVLALPEKYRLPIHLYYYEEYSVREIAEILQRKESAVQTQLQRGREKIRRSLTEKGVS,-0.77
22,HMKPDAAKREQLIDIALRLFSQQGIARTSLNAIAREAGVTPAMLHYYFNSREQLLDVMIEERFL,-3.09
23,HMIKEYEVLNYVTYEYDEIKKKLEEDFGIIVLMKEAYSDETPAGIIMDQDVEQGRIFKEGATNTITFTVS,-0.434
24,HMKALRNQDVVVGKPLAMAVYDQHGVLLLGRGHVVISESQRQQLLERGFSIDAEQLGRLRAAIEATQRV,-0.378
25,HMNTIIIDILPKGLSIAGNQTEPKSLIQQLLMARRADPAQPILLRPAIAVPVQNVVELIDRLTAAGI,-0.221
26,HMEAADAGTLAQRAAQYFNEKNYAAALDALERRAAMAPETTELRMMRGWSLLHLNRKDEARNAFATLG,-0.0562

row,Sequence,soluble fraction (log2)
1,HMEEQQIQLIQMKMEKDHKYVGKKISELRIKNMLIVLIKRGDEDIIPRAEVKIKEGDILVLSAQSYEG,-0.00468
2,HMQDIDIVDLKRISELIYQKYNYDFRNYAMSSFKRRVQRIIELKKLTVDGLIKRLNDTPSFINEFLDELTV,-0.139
3,HMANKQLQEKLKNYISENGSLSSAAKAIGLSPATLSTYLKDKYEGNVANVETRLTEIFETVEAANNLL,-0.258
4,HMAPKVHLLKVPVDKIREIIGTGGKVIRQITEETGAKIDISDDGSVKVSSPDQSSIDAATTWITGIIAE,0.0652
5,HMGQVSDENQLNKVIDEVIKNYPIQVEQFKAGKEPILQFLKGMVMKATEGSADPAVAEKLLRKKL,0.237
6,HMHKLTSRQEEILQFIKDYLSEIGYPPTRSEIAQKMGFRSTNAAEEHLRALARKGAIEILPGPSRGLRLP,-0.455
7,HMGNFFDSAILALKNAIQENYGGNVSQAARSLGISVPTLHTWIKGDRKPSLEKLSPILDALNAKIVL,-0.726
8,HMHDPRLPLPGTLLAREFQGRDIVVKVLDNGFEFDGRRYKSLSAIAQEVTGSKWNGFLFFGI,-0.857
9,HMVSRQINVIPDDLAGLRLDQALAHLFPQHSRSRLKEWLLEDIIIVQGGPKRPKDIVSGGEIVEIKL,-0.0906
10,HMPTYEEAKTYLKAAFEHIVAAGRDVGELVEFAFAKSGDAVAPYLRRFLSDVHEGRITIQGLTESAKLAV,0.206
11,HMNIETHIVPKLLAPIRLQEYGVGIFNNIPTKSALKKALKKQLITVDKTVATTATFIKGGETIELAYQ,-1.47
12,HMQEEFVAPDVKDGAIVLHKAFGEGTVTKIDKAQKHIRVTFGVGEKTFIFPDAFKQGFLRMKG,0.348
13,HMVKLSATVKELLDFVIAKKTVTSSNVSKHFDISAQNASGRLKKLHATGLVLGQKEVAESGGLEFVYRS,-0.183
14,HMTNEAFITPSVLEWAIKRAGVSAESIHKKAEQWVSGKARPTFKQAVDIAKTLQIPFGYLWLKEPPKEQ,-0.551
15,HMEDKQRRMGELVALLNRAAYAYYTKDEPIMADVQYDRLYDELLSLEKETGVQMADSPTHRV,-0.173
16,HMAKTALEQAQAMVAAYVAAEQQILLGKEVRMGGPGIDRWLRFEDLQEVRAGRKEWESTVTRLQNTAA,-0.404
17,HMTLDDSIALGRSLLDKGLMDFGTNLANLAEDKLRDFLSQQRYENLDDLFADIARGNRLPMFTAQQLLS,-0.187
18,HMKTLSKEDIGFLSDEAVGEMRKAVANGEMLELRALIDQVGEKNPIVAEKLLTLVKQYDYENLNRVLE,0.0931
19,HMAEKVIVVADSITVGELAEKLNLPVTNLIGELFKNGIVSTINQRIDFETASIIVEELGLDVELERK,-0.0299
20,HMAAVSSHAVKQRIRSLIQAEDPASPLSDEALRLALSALGVEVSRRAVAKYRTSMDIPASSQRKK,-0.252
21,HMIHEQSLHKIRNFIGSLPESLRTAFTLREQDGLSYEEIGKITNTPIGTVRSRIYRARESILDHINQE,-0.874
22,HMSVDVGMQLRKLREERKISMRELARLSGLSANALSMIERGLTSPSVSTLNKLAGALEVPITAFFRI,-0.285
23,HMGMSKQKQSSLVRIIMQEISDANEGRMKMSQIIDAALIKGISDSTVRSVISRLSTTGAIYEPQTGTYEW,-0.643
24,HMNIGEKIKTLRENNNISIEELAEKINDSIENILKYENNELEPTLDKKLALSIALGVTLSDLS,-0.114
